Test results as given in US20160024199A1 (US Dept. of Health and Human Services, published 2016).

Legend:
[1] = molecular target: T1, recombinant human insulin-like growth factor I (IGF-I) (human, UniProt P05019 49-118); assay: ELISA on coated IGF-I after incubation of the antibody with an equal volume of human serum at 37 C for 0 to 9 days
T1 construct: coated or coupled to a CM5 chip in ELISA and Biacore; also called biotinylated IGF-I

[2] = molecular target: T1, recombinant human insulin-like growth …; assay: ELISA, serial dilutions of IgG on coated IGF-I, detected with HRP anti-human Fc antibody
[3] = molecular target: T2, human insulin-like growth factor II (IGF-II) (human, UniProt P01344 25-91); assay: ELISA, serial dilutions of IgG on coated IGF-II, detected with HRP anti-human Fc antibody
T2 construct: also called biotinylated IGF-II
T2 sequence (P01344 25-91): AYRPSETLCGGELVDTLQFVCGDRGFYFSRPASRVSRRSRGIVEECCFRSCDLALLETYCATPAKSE

[4] = molecular target: T2, human insulin-like growth factor II …; assay: ELISA on coated IGF-II after incubation of the antibody with an equal volume of human serum at 37 C for 0 to 9 days
[5] = molecular target: T1, recombinant human insulin-like growth …; assay: Biacore, IgG1 format
[6] = molecular target: T2, human insulin-like growth factor II …; assay: Biacore, IgG1 format
[7] = molecular target: T1, recombinant human insulin-like growth …; assay: cell-based or functional assay
[8] = molecular target: T2, human insulin-like growth factor II …; assay: cell-based or functional assay
[9] = molecular target: T1, recombinant human insulin-like growth …; assay: Biacore, IgG1 format (effective KD, avidity)
[10] = molecular target: T2, human insulin-like growth factor II …; assay: Biacore, IgG1 format (effective KD, avidity)
human insulin = human insulin (human); assay: ELISA, 10 nM IgG on coated human insulin, detected with HRP anti-human Fc antibody
Sequence of human insulin (human) (chain, as listed by the source limits assumed, chain 1 of 2): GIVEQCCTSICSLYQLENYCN
Sequence of human insulin (human) (chain, as listed by the source limits assumed, chain 2 of 2): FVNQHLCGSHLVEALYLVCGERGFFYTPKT

[11] = molecular target: T1, recombinant human insulin-like growth …; assay: FACS titration of yeast-displayed scFv with biotinylated antigen
[12] = molecular target: T2, human insulin-like growth factor II …; assay: as above
[13] = molecular target: T1, recombinant human insulin-like growth …; assay: Biacore X100, antigen immobilized on CM5, soluble scFv injected
[14] = molecular target: T2, human insulin-like growth factor II …; assay: as above
[15] = molecular target: T1, recombinant human insulin-like growth …; assay: FACS titration of yeast-displayed scFv with biotinylated antigen; remark: listed apart in the source
[16] = molecular target: T2, human insulin-like growth factor II …; assay: as above; remark: listed apart in the source
[17] = molecular target: T1, recombinant human insulin-like growth …; assay: ELISA on coated IGF-I after incubation of the antibody with an equal volume of human serum at 37 C for 0 to 9 days; remark: listed apart in the source
[18] = molecular target: T2, human insulin-like growth factor II …; assay: ELISA on coated IGF-II after incubation of the antibody with an equal volume of human serum at 37 C for 0 to 9 days; remark: listed apart in the source

T1 sequence (P05019 49-118 limits assumed): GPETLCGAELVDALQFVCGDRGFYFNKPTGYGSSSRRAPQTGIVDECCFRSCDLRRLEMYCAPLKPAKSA

EC50 (read off the curve) [2] [nM]	growth inhibition of MCF-7 cells (MTS, 3 days; 2.5 nM IGF-I and 2.5 nM IGF-II added) [7] [nM]	growth inhibition of MCF-7 cells (MTS, 3 days; 2.5 nM IGF-I and 2.5 nM IGF-II added) [8] [nM]	Kd [13] [nM]	koff [13] [s⁻¹]	kon [13] [M⁻¹ s⁻¹]	Kd [14] [nM]	koff [14] [s⁻¹]	kon [14] [M⁻¹ s⁻¹]	Kd [15] [nM]	Kd [16] [nM]	Binder	also measured
~0.4	> 40	> 40									IgG1 m708.5 (antibody, V domains shown, Human IgG1, converted from the scFv in vector pDR12 and expressed in 293 FreeStyle cells; also called m708.5 IgG; IgG m708.5) VH: QVQLQQLGAEVKMPGSSVKVSCKASGGTFSSYAISWVRQAPGQGLEWMGGIIPTLGIVKYAQKFQGRVTITADKSTSTAYMELSSLGSEDTAVYYCAGGPRGYSYNFDNWGQGTLVTVSS VL: DIQMTQSPSSLSASVGDRVTIVCRASQTISRYVNWYQQKPGKAPKLLIYAASSLQSGVSSRFSGSGSGTEFALTISSLQPEDFATYFCQQTYSPPITFGQGTRLEIKQ	EC50 (read off the curve) [1]: ~2 nM; EC50 (read off the curve) [3]: ~0.1 nM; EC50 (read off the curve) [4]: ~2 nM; fold change of effective KD against the scFv [5]: 1000 fold; fold change of effective KD against the scFv [6]: 60 fold; Kd [9]: < 0.001 nM; Kd [10]: < 0.001 nM; binding result (human insulin): no binding (tested: 10 nM)
~3	> 80	> 80									IgG1 m708.2 (antibody, V domains shown, Human IgG1 (pDR12, 293 FreeStyle cells); also called IgG m708.2; IgG708.2) VH: QVQLQQPGAEVKKPGSSVKVSCKASGGTFSSYAISWVRQAPGQGLEWMGGIIPILGIANYAQKFQGRVTITADESTSTAYMELSSLRSEDTAVYYCARGPRGYSYNFDYWGQGTLVTVSS VL: DIQMTQSPSSLSASVGDRVTIACRASQTISRYLNWYQQKPGKAPKLLIYAASSLQSGVSSRFSGSGSGTEFTLTISSLQPEDFATYFCQQTYSPPITFGQGTRLEIKR	IGF-I-induced (1 nM) phosphorylation of IGF-IR in MCF-7 cells, immunoblot [7]: 10 nM
			0.2	0.00028	1.4e+06	0.061	0.00025	4.1e+06	0.1	0.041	m708.5 scFv (scFv, V domains shown, One-chain scFv; also called scFv m708.5) VH: QVQLQQLGAEVKMPGSSVKVSCKASGGTFSSYAISWVRQAPGQGLEWMGGIIPTLGIVKYAQKFQGRVTITADKSTSTAYMELSSLGSEDTAVYYCAGGPRGYSYNFDNWGQGTLVTVSS VL: DIQMTQSPSSLSASVGDRVTIVCRASQTISRYVNWYQQKPGKAPKLLIYAASSLQSGVSSRFSGSGSGTEFALTISSLQPEDFATYFCQQTYSPPITFGQGTRLEIKQ	fold improvement of affinity against m708.2 [11]: 39 fold; fold improvement of affinity against m708.2 [12]: 27 fold
			2.2	0.0024	1.1e+06	1.8	0.0004	230000	3.9	1.1	m708.2 scFv (scFv, V domains shown, One-chain scFv; Biacore on the isolated soluble scFv from pComb3x) VH: QVQLQQPGAEVKKPGSSVKVSCKASGGTFSSYAISWVRQAPGQGLEWMGGIIPILGIANYAQKFQGRVTITADESTSTAYMELSSLRSEDTAVYYCARGPRGYSYNFDYWGQGTLVTVSS VL: DIQMTQSPSSLSASVGDRVTIACRASQTISRYLNWYQQKPGKAPKLLIYAASSLQSGVSSRFSGSGSGTEFTLTISSLQPEDFATYFCQQTYSPPITFGQGTRLEIKR	
											bispecific antibody m67 (bispecific antibody) chain 1: QVQLVQSGAEVKKPGASVKVSCKASGYTFTSYYMHWVRQAPGQGLEWMGIINPSGGSTSYAQKFQGRVTMTRDTSTSTVYMELSRLRSDDTAVYYCARDVQWLAYGMDVWGQGTTVTVSS chain 2: DIQMTQSPSSLSASVGDRVTITCRASQSISSYLNWYQQKPGRAPDLLINAASSLQSGVPSRFSGSGSGTDFTLTISSLQPEDFATYFCQQSYSLPFTFGGGTKVEIK chain 3: QVQLQQLGAEVKMPGSSVKVSCKASGGTFSSYAISWVRQAPGQGLEWMGGIIPTLGIVKYAQKFQGRVTITADKSTSTAYMELSSLGSEDTAVYYCAGGPRGYSYNFDNWGQGTLVTVSS chain 4: DIQMTQSPSSLSASVGDRVTIVCRASQTISRYVNWYQQKPGKAPKLLIYAASSLQSGVSSRFSGSGSGTEFALTISSLQPEDFATYFCQQTYSPPITFGQGTRLEIKQ	EC50 (read off the curve) [17]: ~1 nM; EC50 (read off the curve) [18]: ~3 nM
